Experimental findings from patent US20250313819A1 are described below.

In the assay the target is poly-GA dipeptide repeat protein (human). Description: MSD sandwich ELISA on neuron lysate, C9-patient vs KO line. (In an ELISA, binding on a coated surface is turned into a signal by an enzyme label.)

Regarding anti-GA antibody (MABN889, Millipore), the ratio of signal from the C9-patient vs KO line worked out at 2.
